Source: patent publication US20250145716A1 (RAKUTEN MEDICAL, published 2025)

B1: 2M5 (antibody, V domains shown)
VH: EVQLVESGGGLVKPGGSLRVSCAASGFTLSSYSMNWVRQAPGKGLEWVSSISSSSSYIYYADSVKGRFTISRDNAKNLLYLQMNSLRAEDTAVYYCAREGGAARPSWFDPWGQGTLVTVSS
VL: QAVVTQESALTTSPGETVTLTCRSSTGAVTTSNYANWVQEKPDHLFTGLIGGTNNRAPGVPARFSGSLIGDKAALTITGAQTEDEAIYFCALWYRNHWVFGGGTKLTVL
B2: 1P4-IR700 (antibody, V domains shown)
VH: QVQLVESGGGVVQPGRSLRLSCAASGFTFSNYGMHWVRQAPGKGLEWVSLILYDGSNKYYADSVKGRFTISRDNSKNTLYLQMNSLRAEDTAVYYCARDRVWLDVWGKGTTVTVSS
VL: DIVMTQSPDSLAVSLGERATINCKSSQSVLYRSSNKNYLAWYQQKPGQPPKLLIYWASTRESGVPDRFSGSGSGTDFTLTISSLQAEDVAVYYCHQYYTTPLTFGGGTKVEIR
modifications: IRDye 700DX (IR700) attached via NHS ester; sites not stated; IRDye 700DX (IR700) attached via NHS ester; sites not stated; DAR 2.9 per antibody
notes: also called 1P4-IR700 conjugate; anti-PD-L1-IR700 conjugate
B3: 1P4-EKO-IR700 conjugate (antibody, V domains shown)
VH: QVQLVESGGGVVQPGRSLRLSCAASGFTFSNYGMHWVRQAPGKGLEWVSLILYDGSNKYYADSVKGRFTISRDNSKNTLYLQMNSLRAEDTAVYYCARDRVWLDVWGKGTTVTVSS
VL: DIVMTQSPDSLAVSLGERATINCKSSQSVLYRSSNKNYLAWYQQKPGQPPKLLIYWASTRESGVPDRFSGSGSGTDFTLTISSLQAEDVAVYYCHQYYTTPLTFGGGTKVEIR
modifications: IRDye 700DX (IR700) attached via NHS ester; sites not stated; IRDye 700DX (IR700) attached via NHS ester; sites not stated; DAR 2.7 per antibody
notes: also called 1P4-EKO (conjugate); anti-PD-L1-IR700 conjugate with effector knock-out Fc region
B4: 1P4 with effector knockout (EKO) mutations L234F/L235E/P331S (antibody, V domains shown)
VH: QVQLVESGGGVVQPGRSLRLSCAASGFTFSNYGMHWVRQAPGKGLEWVSLILYDGSNKYYADSVKGRFTISRDNSKNTLYLQMNSLRAEDTAVYYCARDRVWLDVWGKGTTVTVSS
VL: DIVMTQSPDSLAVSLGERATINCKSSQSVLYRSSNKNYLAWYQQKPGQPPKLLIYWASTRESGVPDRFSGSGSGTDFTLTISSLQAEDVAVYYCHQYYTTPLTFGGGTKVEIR
notes: Same variable regions as 1P4; also called 1P4-EKO; 1P4 (L234F/L235E/P331S)
B5: 3B2 (antibody, V domains shown)
VH: EVQLQESGPSLVKPSQTLSLTCSVTGDSITSGYWNWIRKFPGNKLEYMGYISYTGSTYYNPSLKSRISITRDTSKNQYYLQLDSVTTEDTATYYCARKGGWLLPFAYWGQGTLVTVSA
VL: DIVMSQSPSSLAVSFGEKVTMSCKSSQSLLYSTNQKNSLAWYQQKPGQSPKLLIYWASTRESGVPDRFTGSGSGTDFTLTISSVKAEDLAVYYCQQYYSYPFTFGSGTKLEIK
B6: 3B4 (antibody, V domains shown)
VH: EVQLQESGPSLVKPSQTLSLTCSVTGDSITSGYWNWIRKFPGNKLESMGYISYTGSTYYNPSLKSRLSITRDTSKNQFYLQLNSVTTEDTATYYCASGLLWLAWFAYWGQGTLVTVSA
VL: DIVMSQSPSSLAVSVGEKVTMSCKSSQSLLYSSNQKNSLAWYQQKPGQSPKLLIYWASTRESGVPDRFTGSGSGTDFTLTISSVRAEDLAVYYCQQYYGYPFTFGGGTKLEIK
B7: 2M2 (antibody, V domains shown)
VH: QVQLVQSGAEVKKPGASVKVSCKASGYTFTNYGISWVRQAPGQGLEWMGWISAYNGHTNYAQKVQGRVTMTTDTSTSTAFMELRSLRSDDSAVYYCARGTSGDYWGQGTLVTVSS
VL: not shown
B8: 2M1 (antibody, V domains shown)
VH: EVQLVESGGGLVKPGGSLRLSCAASGFTFSSYTMNWVRQAPGKGLEWVSSITSSTSYIYYADSVKGRFTISRDNAKNSLYLQMNSLRAEDTSVYYCVRDWSIAARGAWFDPWGQGTLVTVSS
VL: DIQMTQSPSSVSASVGDRVTITCRASQGIGSWLAWYQQKPGKAPKFLIYAASSLQGGVPSRFSGSGSGTDFTLTISSLQPEDFATYYCQQANSFPLTFGGGTKVEIK
B9: 1P9-EKO-IR700 conjugate (antibody, V domains shown)
VH: EVQLVESGGGLVQPGGSLRLSCAASGFTFSTYWMSWVRQAPGKGLEWVANIKQDGGERYYVDSVKGRFTISRDNAKSSLYLQMNSLRAEDTALYYCARLRLYSDYEDYWGQGTLVTVSS
VL: DIQMTQSPSSVSASVGDRVTITCRASQGISSWLAWYQQKPGKAPKLLIYSVSSLQSGVPSRFSGSGSGTDFTLTISSLQPEDSATYYCQQANSLPPTFGGGTKVEIK
modifications: IRDye 700DX (IR700) attached via NHS ester; sites not stated; IRDye 700DX (IR700) attached via NHS ester; sites not stated; DAR 2.5 per antibody
notes: also called 1P9-EKO (conjugate); anti-PD-L1-IR700 conjugate with effector knock-out Fc region
B10: 2M3 (antibody, V domains shown)
VH: EVQLVESGGGFVQTGGSLRLSCAASGFNFRSYDMHWVRQVIGKGLEWVSGIGPGGDTYYPGSVKGRFTISRENAKNSLYLQMNSLRAGDTAVYYCAREQFEGHYFDYWGQGTLVTVSS
VL: DIQMTQSPSSVSASVGDRVNITCRASQGISSWLAWYQQKPWKAPKLLIYTASSLQSGVPSRFSGSGSGTDFTLTISSLQPEDFATYYCQQANSFPITFGQGTRLEIK
B11: 1P9 with effector knockout mutations L234F/L235E/P331S (antibody, V domains shown)
VH: EVQLVESGGGLVQPGGSLRLSCAASGFTFSTYWMSWVRQAPGKGLEWVANIKQDGGERYYVDSVKGRFTISRDNAKSSLYLQMNSLRAEDTALYYCARLRLYSDYEDYWGQGTLVTVSS
VL: DIQMTQSPSSVSASVGDRVTITCRASQGISSWLAWYQQKPGKAPKLLIYSVSSLQSGVPSRFSGSGSGTDFTLTISSLQPEDSATYYCQQANSLPPTFGGGTKVEIK
notes: Same variable regions as 1P9; also called 1P9-EKO; 1P9 (L234F/L235E/P331S)
B12: 3B1 (antibody, V domains shown)
VH: QIQLVQSGPELKKPGETVKISCKASGYDFTNYGMNWVKQAPGKGLKWMGYINTYTGEPAYADDFKGRFAFSLETSARTAYLRINNLKNEDTATYFCATRAYYGHYLAYWGQGTLVTVSA
VL: DVLMTQTPLSLPVSLGDQASISCRSSQRIVHSNGNTYLEWYLQKPGQSPKLLIYKVSNRFSGVPDRFSGSGSGTDFTLKISRVEAEDLGVYYCFQGSHVPYTFGGGTKLEIK
B13: 3B5 (antibody, V domains shown)
VH: QIQLVQSGPELKKPGETVKISCKASGYDFTNYGMNWVKQAPGKGLKWMGYINTYTGEPAYADDFKGRFAFSLETSARTAYLRINNLKNEDTATYFCATRAYYGHYLAYWGQGTLVTVSA
VL: QIVLTQSPAIMSASPGEKVTITCSASSSVSYMHWFQQKPGTSPKLWIYSTSNLASGVPARFSGSGSGTSYSLTISRMEAEDAATYYCQQRSSYPFTFGSGTKLEIK
B14: 3B6 (antibody, V domains shown)
VH: EVKLVESGGGLVQPGGSLRLSCGTSGFTFSDFYVEWVRQPPGKRLEWIAASRNKVNDYTTEYSESVKGRFIVSRDTSQNILYLQMNALRAEDSAIYYCARNVPWDGWYFDVWGAGTAVTVSS
VL: DIVMTQSQKFMSTSVGDRVSITCKASQNVRTAVAWFQQKPGQSPKALIYLASTRHTGVPDRFTGSGSGTDFTLTISNVQSEDLADYFCLQHWNYPRTFGGGTKLEIK

Tests used:
6xHis-tagged cyPD-L1 [1] = molecular target: T1, 6xHis-tagged cyPD-L1 (cynomolgus monkey, UniProt Q9NZQ7 19-238 (human entry)); experiment: ELISA, plate-coated 6xHis cyPD-L1, A450
T1 construct: The assay text says only '6xHis-tagged cyPD-L1'; also called cynomolgus PD-L1; not shown: 6xHis tag
T1 sequence (Q9NZQ7 other isoform, or with tags, fused parts or gaps): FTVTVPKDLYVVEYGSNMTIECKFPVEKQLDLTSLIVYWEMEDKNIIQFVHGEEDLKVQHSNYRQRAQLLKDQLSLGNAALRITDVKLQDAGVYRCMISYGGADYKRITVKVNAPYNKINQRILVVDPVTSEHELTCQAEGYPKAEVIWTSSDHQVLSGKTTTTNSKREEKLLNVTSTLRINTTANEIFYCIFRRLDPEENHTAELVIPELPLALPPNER
Description: (§1) Hybridoma supernatants were tested for binding to huPD-L1, cyPD-L1, and muPD-L1 by ELISA. Briefly, 30 μL 6xHis-tagged huPD-L1, cyPD-L1, or muPD-L1 (1 μg/mL in PBS) were immobilized in wells of a 96-well assay plate overnight at 4° C. After washing and blocking steps, 30 μL of antibody supernatant were added to the plate and incubated at room temperature for 1 hr. Bound human antibody was detected using horseradish peroxidase (HRP)-conjugated goat anti-human Fc (Invitrogen Cat. No. 109-035-097; diluted 1:5000) or goat anti-mouse Fc HRP (Invitrogen Cat. No. 115-035-071) as a control. Bound antibody was detected with 1-Step Ultra™ TMB-ELISA Substrate (ThermoFisher Scientific Cat. No. 34029). When the reaction was complete the reaction was stopped, and the plate was read at 450 nm.
(§2) Anti-PD-L1 antibodies, described in Example 1A and manufactured substantially as described in Example 1B, were tested for to huPD-L1 and cyPD-L1 by ELISA substantially as described in Example 1A, using 12 dilutions of antibody ranging from 1 ng/ml to 3 mg/mL.

6xHis-tagged huPD-L1 [2] = molecular target: T2, 6xHis-tagged huPD-L1 (human, UniProt Q9NZQ7 19-238); experiment: ELISA, plate-coated 6xHis huPD-L1, A450
T2 construct: also called human PD-L1 (RD Systems 9049-B7); extracellular domain of human PD-L1 fused to a His tag; not shown: 6xHis tag
T2 sequence (Q9NZQ7 19-238): as the sequence (Q9NZQ7 other isoform, or with tags, fused parts or gaps) above, with T33A, S34A, N62S, Q68R, R82Q, L173F, A185T, I192T, L215H counted along it
Description: as §1, §2

6xHis-tagged huPD-L1 [3] = molecular target: T2, 6xHis-tagged huPD-L1; experiment: ELISA, plate-coated 6xHis huPD-L1, OD 450 nm
Description: as §1

[4] = molecular target: T3, PD-L1-His (Acro Cat PDL-H5229) (human, UniProt Q9NZQ7 19-238); experiment: SPR (Biacore 4000) as in Example 3, conjugate captured, PD-L1-His analyte, 37° C.
T3 construct: also called human PD-L1 (SPR analyte); not shown: His tag
T3 sequence (Q9NZQ7 19-238 limits assumed): as the sequence (Q9NZQ7 other isoform, or with tags, fused parts or gaps) above, with T33A, S34A, N62S, Q68R, R82Q, L173F, A185T, I192T, L215H counted along it
Description: (§3) The binding affinities of the generated antibodies to human PD-L1 were determined by surface plasmon resonance. […] PD-L1-His (Acro Cat PDL-H5229) was tested for binding in a 3-fold titration series up to 100 nM. Data were collected in HBS-P (pH 7.4) at 37° C. and 25° C.
(§4) The binding affinities of the generated anti-PD-L1 conjugates were determined by surface plasmon resonance, as described in Example 3.

[5] = molecular target: T4, human PD-L1 expressed on cells (human, UniProt Q9NZQ7 19-290); experiment: flow cytometry, PD-L1-expressing CHO cells, MFI (FITC)
T4 construct: whole, on cells; One entry covers all human PD-L1-bearing cells; also called huPD-L1 on CHO cells (CHO-hPD-L1); PD-L1 on A431 cells
T4 sequence (Q9NZQ7 19-290): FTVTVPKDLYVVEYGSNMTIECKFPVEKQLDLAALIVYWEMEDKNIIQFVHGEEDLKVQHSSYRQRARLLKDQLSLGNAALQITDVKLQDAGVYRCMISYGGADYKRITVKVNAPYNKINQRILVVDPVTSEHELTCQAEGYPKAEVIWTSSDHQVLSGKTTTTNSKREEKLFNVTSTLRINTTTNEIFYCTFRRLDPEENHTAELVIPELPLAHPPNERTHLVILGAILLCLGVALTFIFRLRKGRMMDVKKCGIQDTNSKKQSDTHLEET
Description: Wild-type (wt) Chinese hamster ovary (CHO) cells (ATCC) and CHO cells engineered to express huPD-L1 (BPS Bioscience) were seeded at 200,000 cells in 50 μL FACS buffer (PBS containing 1% FBS and 5 mM EDTA) per well of a 96-well plate. Cell viability was assessed by adding 50 μL 2×Zombie Violet (BioLegend). Dead cell controls were also prepared and 2×Zombie violet was added. After incubating 20-30 minutes at room temperature, protected from light, 150 μL FACS buffer were added to each well. The plates were centrifuged, and the supernatant was aspirated. […] The plates were incubated 30 minutes on ice, protected from light. 150 μL FACS buffer were then added to each well and the plate was centrifuged. The supernatant was removed and the cells were washed three times in 200 μL FACS buffer. […] The cells were incubated 30 minutes on ice, protected from light. 150 μL FACS buffer were then added to each well and the plate was centrifuged. Supernatant was removed and the cells were washed twice with 200 μL FACS buffer. The cells were then resuspended in FACS buffer and analyzed by CytoFLEX using the appropriate channels. After gating for whole, single, live cells, the MFI in the APC channel (or FITC channel for human control samples) was normalized to the signal from hybridoma media alone (or isotype control for human control). MFI fold over media alone was determined for each clone supernatant tested.

[6] = molecular target: T3, PD-L1-His (Acro Cat PDL-H5229); experiment: SPR (Biacore 4000) as in Example 3, conjugate captured, PD-L1-His analyte, 25° C.
Description: as §3, §4

[7] = molecular target: T4, human PD-L1 expressed on cells; experiment: cell-based or functional assay
[8] = molecular target: T4, human PD-L1 expressed on cells; experiment: cell-based or functional assay; remark: listed apart in the source
6xHis-tagged cyPD-L1 [9] = molecular target: T1, 6xHis-tagged cyPD-L1; experiment: ELISA, plate-coated 6xHis cyPD-L1, OD 450 nm
Description: as §1

Row | Binder | Absolute IC50 (6xHis-tagged cyPD-L1 [1]) | Absolute IC50 (6xHis-tagged huPD-L1 [2]) | EC50 [5] | also measured
1 | B1 | 0.234 µg/mL | 0.788 µg/mL |  | 
2 | B2 |  |  | 0.133 µg/mL | EC50 (6xHis-tagged huPD-L1 [3]): 0.189 µg/mL; Kd [4]: 23 nM; koff [4]: 0.011 s⁻¹; kon [4]: 470000 M⁻¹ s⁻¹; Kd [6]: 16 nM; koff [6]: 0.0056 s⁻¹; kon [6]: 350000 M⁻¹ s⁻¹; EC50 of photoimmunotherapy-induced killing of A431 cells (Cell Tox Green, 128 J/cm^2) [7]: 0.103 µg/mL; EC50 of luminescence (RLU), PD-1:PD-L1 Blockade Bioassay (PD-L1 aAPC/CHO-K1 cells with PD-1 Effector Jurkat NFAT-luciferase cells) [8]: 0.855 µg/mL; EC50 (6xHis-tagged cyPD-L1 [9]): 0.193 µg/mL
3 | B3 |  |  | 0.145 µg/mL | 
4 | B4 |  |  | 0.0455 µg/mL | 
5 | B5 | 0.341 µg/mL | 0.225 µg/mL |  | 
6 | B6 | 0.106 µg/mL | 0.152 µg/mL |  | 
7 | B7 | 0.167 µg/mL | 0.0838 µg/mL |  | 
8 | B8 | 0.559 µg/mL | 0.428 µg/mL |  | 
9 | B9 |  |  | 0.0174 µg/mL | 
10 | B10 | 0.672 µg/mL | 0.788 µg/mL |  | 
11 | B11 |  |  | 0.0186 µg/mL | 
12 | B12 | 0.0569 µg/mL | 0.0498 µg/mL |  | 
13 | B13 | 0.325 µg/mL |  |  | binding result (6xHis-tagged huPD-L1 [2]): binds
14 | B14 | 0.246 µg/mL | 0.33 µg/mL |  | 
